This is an account of results in the supplement of paper PMC10724198.

± gives the standard deviation of the averaged measurements.

This data set concerns Saccharomyces cerevisiae. Briefly: protein stability index of tFT-peptide fusion (C-terminal peptide) (PSI (0-1 scale)); higher = more stable (slower turnover). The conditions noted are these: temperature: 30 C. The protocol: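 MPS profiling in S. cerevisiae of the yeast C-terminome library: the last 12 aa of each annotated ORF are fused to the C-terminus of a sfGFP-mCherry timer, after a GGGS linker. Cells are FACS-sorted into 8 mCherry/sfGFP bins and deep-sequenced. PSI runs from 0 (unstable) to 1 (stable); wild type and das1Δ backgrounds, two technical replicates each.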

The mark [1] stands for this setting: genetic background: das1 deletion.

CIGDTDYIERYD [CDA1 C-terminal 12 aa] yielded a protein stability index under setting [1] of 0.694 ± 0.015 and a protein stability index (genetic background: wild type) of 0.685 ± 0.031.
Taken in the same sequence, the figures for CIISIVVFPTCI [BIO5 C-terminal 12 aa] were 0.286 ± 0.016 and 0.285 ± 0.0088.
For CIVNLASDTISL [YOL150C C-terminal 12 aa], in that order: 0.709 ± 0.0077 and 0.667 ± 0.01.
Taken in the same sequence, the figures for CKATSLLLIPEG [YBL108W C-terminal 12 aa] were 0.675 ± 0.018 and 0.659 ± 0.021.
Turning to CLFRYKQLPRRV [MCH2 C-terminal 12 aa], the protein stability index reads like this: under setting [1], 0.69 ± 0.073; (genetic background: wild type) 0.687 ± 0.029.
For CLQTESETDIET [LIF1 C-terminal 12 aa], the protein stability index reads like this: under setting [1], 0.661 ± 0.0085; (genetic background: wild type) 0.674 ± 0.013.
CLRKSPPFVHNT [YMR084W C-terminal 12 aa]: the protein stability index is, setting by setting: under setting [1], 0.6939 ± 0.0044; (genetic background: wild type) 0.703 ± 0.022.
As for CTIQKMREKANT [YNL028W C-terminal 12 aa], the protein stability index came to 0.677 ± 0.027 under setting [1] and 0.723 ± 0.062 (genetic background: wild type).
Regarding CVDCGTVVNNFR [LAF1 C-terminal 12 aa], the protein stability index came out at 0.723 ± 0.019 under setting [1] and 0.688 ± 0.025 (genetic background: wild type).
For “CVWESMSNWLQK [YEL034C-A C-terminal 12 aa]”, in that order: 0.7238 ± 0.00042 and 0.724 ± 0.015.
Taken in the same sequence, the figures for DAAIVKKYKNKT [NUP57 C-terminal 12 aa] were 0.687 ± 0.025 and 0.692 ± 0.033.
For the sequence DDDEDGYNPYTL [PAP2 C-terminal 12 aa], the protein stability index is, setting by setting: under setting [1], 0.7215 ± 0.0049; (genetic background: wild type) 0.697 ± 0.0073.
For DDGTKNFIFKNK [ECM23 C-terminal 12 aa], in that order: 0.7072 ± 0.0034 and 0.706 ± 0.031.
Taken in the same sequence, the figures for DDNDDGDDDDDW [MYO3 C-terminal 12 aa] were 0.68701 ± 0.00044 and 0.7087 ± 0.0034.
In turn, DDNDDSDEREIW [UBR1 C-terminal 12 aa] came in with a protein stability index under setting [1] of 0.699 ± 0.031 and a protein stability index (genetic background: wild type) of 0.71 ± 0.029.
For DDNDTSAYYEDN [GSY1 C-terminal 12 aa], in that order: 0.689 ± 0.0083 and 0.803 ± 0.073.
Taken in the same sequence, the figures for DEASGTPDEDML [GRR1 C-terminal 12 aa] were 0.6796 ± 0.0046 and 0.693 ± 0.034.
Sequence DEERPSKKPKVE [POB3 C-terminal 12 aa] registered a protein stability index under setting [1] of 0.7314 ± 0.0054 and a protein stability index (genetic background: wild type) of 0.745 ± 0.02.
Taken in the same sequence, the figures for DEGVSLVFEVPN [SQT1 C-terminal 12 aa] were 0.683 ± 0.02 and 0.677 ± 0.012.
In turn, DENRHSIRIPFN [USB1 C-terminal 12 aa] displayed a protein stability index under setting [1] of 0.704 ± 0.015 and a protein stability index (genetic background: wild type) of 0.688 ± 0.013.
For DFPHEAVVREML [TVP18 C-terminal 12 aa], in that order: 0.7167 ± 0.0023 and 0.6914 ± 0.0026.
Regarding DFQNCFPRQRIL [DFP2 C-terminal 12 aa], the protein stability index is 0.7035 ± 0.0037 under setting [1] and 0.2848 ± 0.0028 (genetic background: wild type).
Turning to DFVDMYQTEHSG [MTF1 C-terminal 12 aa], the protein stability index runs as follows: under setting [1], 0.712 ± 0.0088; (genetic background: wild type) 0.7301 ± 0.0034.
Taken in the same sequence, the figures for DFVYNEEDFEKL [NOT5 C-terminal 12 aa] were 0.718 ± 0.015 and 0.681 ± 0.014.
Take DGKSVNKYGAKK [GUS1 C-terminal 12 aa]: the protein stability index by setting is: under setting [1], 0.6798 ± 0.0063; (genetic background: wild type) 0.699 ± 0.029.
For the sequence DGKVIYELEDKE [GET3 C-terminal 12 aa], the protein stability index worked out at 0.727 ± 0.021 under setting [1] and 0.6753 ± 0.0058 (genetic background: wild type).
For DGSGKYFLKHDS [KTR2 C-terminal 12 aa], in that order: 0.706 ± 0.0039 and 0.708 ± 0.04.
Taken in the same sequence, the figures for DHKVGAQVSYKY [MAD2 C-terminal 12 aa] were 0.71 ± 0.0075 and 0.675 ± 0.017.
In the case of DIGKKKYSHSSN [RER1 C-terminal 12 aa], the protein stability index runs as follows: under setting [1], 0.673 ± 0.043; (genetic background: wild type) 0.686 ± 0.049.
DKEQQQQQQQQP [ZDS1 C-terminal 12 aa]: the protein stability index turned out to be 0.702 ± 0.0076 under setting [1] and 0.708 ± 0.032 (genetic background: wild type).
For DKEVLHVKADSL [FTR1 C-terminal 12 aa], in that order: 0.7131 ± 0.0063 and 0.7 ± 0.047.
DLAYQYVRALEL [SRB2 C-terminal 12 aa]: the protein stability index came to 0.683 ± 0.013 under setting [1] and 0.673 ± 0.0094 (genetic background: wild type).
On to DLDLDLFDPDDF [MED4 C-terminal 12 aa], for which the protein stability index was found to be 0.7055 ± 0.0036 under setting [1] and 0.684 ± 0.044 (genetic background: wild type).
Taken in the same sequence, the figures for DLSSFFNYRSVQ [SPH1 C-terminal 12 aa] were 0.75 ± 0.015 and 0.7374 ± 0.0021.
